Source: patent US20110262438A1 (Ablynx, published 2011)

Key:
Human CXCR7 [1] = molecular target: T1, Human CXCR7 (human, UniProt P25106 1-362); test: displacement of 75 pM [125I]-CXCL12 from NIH3T3-hCXCR7 cells
T1 construct: also called hCXCR7; CXCR7-LP
Description: In order to assess the competition capacity, Nanobodies were evaluated in SDF1 ligand displacement assays using stable NIH3T3-hCXCR7 cells. 24 h after seeding the cells, the cells were pre-incubated for 1 h at 4° C. with a dilution series of purified monovalent Nanobodies and the corresponding C-terminal Tag-2 tagged fusion proteins to the human serum albumin binding Nanobody Alb8 (see Table B-4: SEQ ID NOs: 44 to 48 wherein the polypeptides are all C-terminal tagged with Tag-2). Also reference molecules Mab 8F11 (Biolegend), Mab 11G8 (R&D) and unlabelled SDF1 were included in the assay. Radiolabeled [¹²⁵I]-CXCL12 was diluted and added to the cells to reach a final concentration of 75 pM and cells were incubated for 3 h at 4° C. After incubation, cells were washed twice, lysed with RIPA buffer and the ¹²⁵I signal was measured. The competition of tested Nanobodies and 8F11 Mab is between 73 and 83%, relative to competition with unlabelled SDF1. This level of displacement correspond to a 100% blocking of the CXCR7 protein, as the remaining SDF-1 binding is believed not to be CXCR7 mediated, but due to the SDF-1 interaction with heparan sulfate proteoglycans. Fusion to the human serum albumin-binding Nanobody Alb8 has no significant effect on Ki values.

Human CXCR7 [2] = molecular target: T1, Human CXCR7; test: competition FACS, 4 nM biotinylated SDF1 on HEK-hCXCR7 cells
Description: The potency of Nanobody 7CXCR07C3 and Mab 8F11 (Biolegend) to compete with SDF1 was evaluated in competition FACS with HEK-hCXCR7 cells. Cells were incubated simultaneously with 4 nM biotinylated SDF1 (R&D) and with diluted test molecules, for 2 h at 4° C. Binding of biotinylated SDF1 was detected using streptavidin-PE. Competition curves are depicted in FIG. 1.

Human CXCR7 [3] = molecular target: T1, Human CXCR7; test: FACS, ratio of Hek293 hCXCR7 signal over control cells
Description: Clones representing distinct Nanobody B-cell lineages were tested as periplasmic extracts for their binding to cell surface exposed CXCR7. In this assay, 5-fold dilutions of periplasmic extract were incubated with Hek293 hCXCR7 and Hek293 wt cells. Binding of the Nanobodies was detected using mouse anti-myc (Serotec), followed by anti-mouse IgG-PE (Jackson Immununoresearch). Binding signals of selected Nanobody clones (mcf values and ratios of binding) are represented in Table B-8 and indicate that the Nanobodies do bind to cellular human CXCR7.

T1 sequence (P25106 whole entry): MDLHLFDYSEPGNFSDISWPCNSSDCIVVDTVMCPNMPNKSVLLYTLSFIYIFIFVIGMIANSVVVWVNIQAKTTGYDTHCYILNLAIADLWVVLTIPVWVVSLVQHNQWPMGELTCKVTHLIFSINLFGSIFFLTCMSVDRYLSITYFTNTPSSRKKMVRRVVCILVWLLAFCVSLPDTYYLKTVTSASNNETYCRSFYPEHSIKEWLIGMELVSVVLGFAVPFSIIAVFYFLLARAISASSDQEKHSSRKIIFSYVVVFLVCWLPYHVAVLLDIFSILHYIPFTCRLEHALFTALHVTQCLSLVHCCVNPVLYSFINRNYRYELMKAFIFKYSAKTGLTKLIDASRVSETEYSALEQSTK

Work on Mab 8F11 (Biolegend) (antibody) yielded a displacement (% relative to cold SDF1) (Human CXCR7 [1]) of 73% and a competition (% relative to unlabelled SDF1) (Human CXCR7 [2]) greater than 95%.

B1: 07B11 with Tag-1 (VHH)
VHH: EVQLVESGGNLVQAGGSLGLSCAASVSISSIHIMGWYRQAPGKQRDLVATITSGGSTAYADSVKGRFTVSKDNAKNTVYLQMDSLKPEDTSVYYCAAEVRNGVFGKWNHYWGQGTQVTVSS
With B1 the “Fod Hek CXCR7/CXCR4” value (Human CXCR7 [3]) was 110 fold.

B2: 07B11 with Tag-2 (VHH)
VHH: EVQLVESGGNLVQAGGSLGLSCAASVSISSIHIMGWYRQAPGKQRDLVATITSGGSTAYADSVKGRFTVSKDNAKNTVYLQMDSLKPEDTSVYYCAAEVRNGVFGKWNHYWGQGTQVTVSS
notes: Purified monovalent Nanobody from E. coli (pAX100); also called 707B11
For B2, the “displacement (% relative to cold SDF1)” value (Human CXCR7 [1]) was 75%.

B3: 08A10 with Tag-1 (VHH)
VHH: EVQLVESGGGLVQAGGSLRLSCAASGSIFSIAAMGWYRQATGKQRELVATITDGGTTTYADSVKGRVTISRDRSANTVYLAMNNLKPDDTAVYYCYAYLRYTSRVPGDNYWGQGTQVTVSS
B3 was tested, and the “Fod Hek CXCR7/CXCR4” value (Human CXCR7 [3]) was 85.1 fold.

B4: 08A10 with Tag-2 (VHH)
VHH: EVQLVESGGGLVQAGGSLRLSCAASGSIFSIAAMGWYRQATGKQRELVATITDGGTTTYADSVKGRVTISRDRSANTVYLAMNNLKPDDTAVYYCYAYLRYTSRVPGDNYWGQGTQVTVSS
notes: Purified monovalent Nanobody from E. coli (pAX100)
B4 was tested, and the “displacement (% relative to cold SDF1)” value (Human CXCR7 [1]) was 75%.

B5: 07C3 with Tag-1 (VHH)
VHH: EVQLVESGGGLVQAGESLTLSCAASGRTLSAYIMGWFRQAPGKEREFVAGIWSGGYTHLADSAKGRFSISRDNAKNTVYLQMNGLKPEDTAVYYCAAGLRGRQYSNWGQGTQVTVSS
B5 was tested, and the “Fod Hek CXCR7/CXCR4” value (Human CXCR7 [3]) was 73.2 fold.

B6: 07C3 with Tag-2 (VHH)
VHH: EVQLVESGGGLVQAGESLTLSCAASGRTLSAYIMGWFRQAPGKEREFVAGIWSGGYTHLADSAKGRFSISRDNAKNTVYLQMNGLKPEDTAVYYCAAGLRGRQYSNWGQGTQVTVSS
notes: Purified monovalent Nanobody from E. coli (pAX100); also called 7CXCR07C3
In the case of B6, the “displacement (% relative to cold SDF1)” value (Human CXCR7 [1]) is reported as 78% and the “competition (% relative to unlabelled SDF1)” value (Human CXCR7 [2]) is reported as greater than 95%.

B7: 08A5 with Tag-1 (VHH)
VHH: EVQLVESGGGLVQAGDSLRLSCAASGLTFSNYDMGWFRQAPGKEREFVGASWWSGGAPYYSDSVKGRFTISRDNAKNTVYLQANSLRPEDTAVYYCAAKRLRSFASGGSYDYWGQGTQVTVSS
B7 was tested, and the “Fod Hek CXCR7/CXCR4” value (Human CXCR7 [3]) was 60.1 fold.

B8: 08A5 with Tag-2 (VHH)
VHH: EVQLVESGGGLVQAGDSLRLSCAASGLTFSNYDMGWFRQAPGKEREFVGASWWSGGAPYYSDSVKGRFTISRDNAKNTVYLQANSLRPEDTAVYYCAAKRLRSFASGGSYDYWGQGTQVTVSS
notes: as for B4
With B8 the “displacement (% relative to cold SDF1)” value (Human CXCR7 [1]) was 77%.

B9: Mab 11G8 (R&D Systems) (antibody, V domains shown)
VH: EVKLVESGGDLVQPGGSLKLSCATSGFTFSDYYMFWVRQTPEKRLEWVAYITNGGDRSYYSDTVTGRFIISRDNAKNTLYLQMSRLKSEDTAMYYCARQGNWAAWFVYWGQGTLVTVSA
VL: DVLMTQTPLSLPVSLGDQASISCRSSHYIVHSDGNTYLEWYLQKPGQSPKLLIYKVSNRFSGVPDRFSGSGSGTDFTLKISRVEAEDLGIYYCFQGSHVPLTFGAGTKLELKR
In the case of B9, the “displacement (% relative to cold SDF1)” value (Human CXCR7 [1]) is reported as 24%.
